Results taken from publication PMC6168860, “Dual Role of a Viral Polymerase in Viral Genome Replication and Particle Self-Assembly” (mBio, 2018).
Where a chain is given by its changes, count along the chain named. In names and notes the source's numbering stands.

B1: Φ6 P2 surface mutant HER (histidine-tagged) (enzyme, Pseudomonas phage Φ6, UniProt P11124 1-665, looked up)
chain: MPRRAPAFPLSDIKAQMLFANNIKAQQASKRSFKEGAIETYEGLLSVDPRFLSFKNELSRYLTDHFPANVDEYGRVYGNGVRTNFFGMRHMNGFPMIPATWPLASNLKKRADADLADGPVSERDNLLFRAAVRLMFSDLEPVPLKIRKGSSTCIPYFSNDMGTKIEIAERALEKAEEAGNLMLQGKFDDAYQLHQMGGAYYVVYRAQSTDAITLDPKTGKFVSKDRMVADFEYAVTGGEQGSLFAASKDASRLKEQYGIDVPDGFFCERRRTAMGGPFALNAPIMAVAQPVRNKIYSKYAYTFHHTTRLNKEEKVKEWSLCVATDVSDHDTFWPGWLRDLICDELLNMGYAPWWVKLFETSLKLPVYVGAPAPEQGHTLLGDPSNPDLEVGLSSGQGATDLMGTLLMSITYLVMQLDHTAPHLNSRIKDMPSACRFLDSYWQGAQEIRQISKSDDAILGWTKGRALVGGHALFEMLKEGKVNPSPYMKISYEHGGAFLGDILLYDSRREPGSAIFVGNINSMLNNQFSPEYGVQSGVRDRSKRKRPFPGLAWASMKDTYGACPIYSDVLEAIERCWWNAFGESYRAYREDMLKRDTLELSRYVASMARQAGLAELTPIDLEVLADPNKLQYKWTEADVSANIHEVLMHGVSVEKTERFLRSVMPR
notes: RNA-dependent RNA polymerase P2 of Pseudomonas phage Φ6 with His443 to Ala, Glu444 to Gln and Arg470 to Ala, made from pEM33 (C-terminal hexahistidine tag); source: E. coli BL21(DE3), plasmid pXS29, purified as described for N-terminally histidine-tagged P2; not shown: His6, C-terminal, kept
B2: Φ6 P2 surface mutant W576A (histidine-tagged) (enzyme, Pseudomonas phage Φ6, UniProt P11124 1-665, looked up)
chain: B1 chain with A444H, Q445E, A471R, W577A
notes: RNA-dependent RNA polymerase P2 of Pseudomonas phage Φ6 with Trp576 to Ala, made from pEM33 (C-terminal hexahistidine tag); source: E. coli BL21(DE3), plasmid pXS28, purified as described for N-terminally histidine-tagged P2; not shown: His6, C-terminal, kept
B3: Φ6 P2 surface mutant HERW (histidine-tagged) (enzyme, Pseudomonas phage Φ6, UniProt P11124 1-665, looked up)
chain: B1 chain with W577A
notes: source: E. coli BL21(DE3), plasmid pXS30, purified as described for N-terminally histidine-tagged P2; not shown: His6, C-terminal, kept
B4: Pseudomonas phage Φ6 major capsid protein P1 (natural protein, UniProt P11126 1-769, looked up)
chain: MFNLKVKDLNGSARGLTQAFAIGELKNQLSVGALQLPLQFTRTFSASMTSELLWEVGKGNIDPVMYARLFFQYAQAGGALSVDELVNQFTEYHQSTACNPEIWRKLTAYITGSSNRAIKADAVGKVPPTAILEQLRTLAPSEHELFHHITTDFVCHVLSPLGFILPDAAYVYRVGRTATYPNFYALVDCVRASDLRRMLTALSSVDSKMLQATFKAKGALAPALISQHLANAATTAFERSRGNFDANAVVSSVLTILGRLWSPSTPKELDPSARLRNTNGIDQLRSNLALFIAYQDMVKQRGRAEVIFSDEELSSTIIPWFIEAMSEVSPFKLRPINETTSYIGQTSAIDHMGQPSHVVVYEDWQFAKEITAFTPVKLANNSNQRFLDVEPGISDRMSATLAPIGNTFAVSAFVKNRTAVYEAVSQRGTVNSNGAEMTLGFPSVVERDYALDRDPMVAIAALRTGIVDESLEARASNDLKRSMFNYYAAVMHYAVAHNPEVVVSEHQGVAAEQGSLYLVWNVRTELRIPVGYNAIEGGSIRTPEPLEAIAYNKPIQPSEVLQAKVLDLANHTTSIHIWPWHEASTEFAYEDAYSVTIRNKRYTAEVKEFELLGLGQRRERVRILKPTVAHAIIQMWYSWFVEDDRTLAAARRTSRDDAEKLAIDGRRMQNAVTLLRKIEMIGTTGIGASAVHLAQSRIVDQMAGRGLIDDSSDLHVGINRHRIRIWAGLAVLQMMGLLSRSEAEALTKVLGDSNALGMVVATTDIDPSL
notes: major capsid protein P1 of Pseudomonas phage Φ6, wild type; The shell holds 120 copies of P1 (60 asymmetric P1A/P1B dimers) by the introduction; In the recombinant PCs of a11 P1 was co-expressed from pLM687 in E. coli JM109; also called main structural P1 protein; P1 shell; source: E. coli JM109, P1P4 particles from plasmid pLM358, P1 purified as previously described

What was measured:
[1] = molecular target: B4; experiment: co-sedimentation; in vitro self-assembly of purified P1, P4 (120:72) and P2 or P2 variant at 10×P2 (P1:P2 120:120), no P7; room temperature, 90 min, 250 to 350 mM NaCl, 20 mM Tris pH 8.0, 6% PEG 4000; rate-zonal centrifugation in 10% to 30% sucrose, P2 copies per particle from SDS-PAGE; details: both partners purified
[2] = molecular target: the molecule itself; experiment: co-sedimentation; in vitro self-assembly of purified P1 and P4 (120:72), no P2, no P7 (P1P4 reaction); room temperature, 90 min, 250 to 350 mM NaCl, 20 mM Tris pH 8.0, 6% PEG 4000, P1 about 0.2 mg/ml; rate-zonal centrifugation in 10% to 30% sucrose, light-scattering zones analysed by SDS-PAGE

Binder | copies of P2 variant per particle [1] [copies per particle] | binding result [2]
B1 | 6 | 
B2 | 12 | 
B3 | 4 | 
B4 |  | binds
